Measurements published in article PMC9482650, “Quantitative fragmentomics allow affinity mapping of interactomes” (Nature Communications, 2022).

Legend:
Experiment in all cases: holdup assay
Parameters in all cases: key: below the threshold = too weak to quantify, mostly under pKd 3.1 to 4
Conditions in all cases: plain residues with an end cap or a label only (N-terminal biotin on a linker: ado-ado)
CARD11, Q9BXL7 = target: T1, CARD11, Q9BXL7
T1 sequence (Q9BXL7 662-765, limits assumed, looked up): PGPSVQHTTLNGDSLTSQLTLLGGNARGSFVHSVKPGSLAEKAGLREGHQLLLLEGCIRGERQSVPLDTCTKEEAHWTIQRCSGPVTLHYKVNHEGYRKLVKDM

DFNB31_2, Q9P202 = target: T2, DFNB31_2, Q9P202
T2 sequence (Q9P202 274-371, limits assumed, looked up): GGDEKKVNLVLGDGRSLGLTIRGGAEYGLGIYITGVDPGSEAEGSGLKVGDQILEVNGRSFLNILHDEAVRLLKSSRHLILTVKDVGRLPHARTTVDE

DFNB31_3, Q9P202 = target: T3, DFNB31_3, Q9P202
T3 sequence (Q9P202 811-907, limits assumed, looked up): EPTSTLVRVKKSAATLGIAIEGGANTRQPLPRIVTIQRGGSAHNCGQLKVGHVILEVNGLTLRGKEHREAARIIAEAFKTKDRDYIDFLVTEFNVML

DLG1_1, Q12959 = target: DLG1_1, Q12959
DLG1_2, Q12959 = target: DLG1_2, Q12959
DLG2_3, Q15700 = target: DLG2_3, Q15700
FRMPD2_2, Q68DX3 = target: FRMPD2_2, Q68DX3
FRMPD2_3, Q68DX3 = target: FRMPD2_3, Q68DX3
GIPC2, Q8TF65 = target: GIPC2, Q8TF65
GRASP, Q7Z6J2 = target: GRASP, Q7Z6J2
GRID2IP_2, A4D2P6 = target: GRID2IP_2, A4D2P6
GRIP2_5, Q9C0E4 = target: GRIP2_5, Q9C0E4
GRIP2_6, Q9C0E4 = target: GRIP2_6, Q9C0E4
IL16_3, Q14005 = target: IL16_3, Q14005
LIN7A, O14910 = target: T4, LIN7A, O14910
T4 sequence (O14910 103-200, limits assumed, looked up): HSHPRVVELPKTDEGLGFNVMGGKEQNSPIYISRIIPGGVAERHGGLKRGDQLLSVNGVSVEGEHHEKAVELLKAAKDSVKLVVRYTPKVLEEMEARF

MAGI2_2, Q86UL8 = target: MAGI2_2, Q86UL8
MAST1, Q9Y2H9 = target: MAST1, Q9Y2H9
MPDZ_5, O75970 = target: T5, MPDZ_5, O75970
T5 sequence (O75970 695-796, limits assumed, looked up): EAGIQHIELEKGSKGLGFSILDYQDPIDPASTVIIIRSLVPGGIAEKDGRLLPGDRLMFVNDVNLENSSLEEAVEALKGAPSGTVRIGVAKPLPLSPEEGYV

MPP6, Q9NZW5 = target: T6, MPP6, Q9NZW5
T6 sequence (Q9NZW5 125-219, limits assumed, looked up): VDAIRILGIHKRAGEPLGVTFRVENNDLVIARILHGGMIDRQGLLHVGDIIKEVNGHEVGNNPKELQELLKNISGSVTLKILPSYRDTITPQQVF

NHERF2_2, Q15599 = target: NHERF2_2, Q15599
NHERF3_1, Q5T2W1 = target: T7, NHERF3_1, Q5T2W1
T7 sequence (Q5T2W1 4-100, limits assumed, looked up): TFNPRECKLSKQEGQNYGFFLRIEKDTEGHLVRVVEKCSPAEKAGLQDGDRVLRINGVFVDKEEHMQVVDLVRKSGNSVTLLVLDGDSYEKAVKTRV

NHERF3_4, Q5T2W1 = target: T8, NHERF3_4, Q5T2W1
T8 sequence (Q5T2W1 373-468, limits assumed, looked up): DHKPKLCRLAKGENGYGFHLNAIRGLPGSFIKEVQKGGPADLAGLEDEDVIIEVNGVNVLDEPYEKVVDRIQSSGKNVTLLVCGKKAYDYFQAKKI

PCLO, Q9Y6V0 = target: T9, PCLO, Q9Y6V0
T9 sequence (Q9Y6V0 4491-4600, limits assumed, looked up): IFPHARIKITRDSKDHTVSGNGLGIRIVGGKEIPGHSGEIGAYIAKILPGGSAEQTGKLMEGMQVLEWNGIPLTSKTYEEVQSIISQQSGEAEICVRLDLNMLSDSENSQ

PDZD2_2, O15018 = target: T10, PDZD2_2, O15018
T10 sequence (O15018 329-429, limits assumed, looked up): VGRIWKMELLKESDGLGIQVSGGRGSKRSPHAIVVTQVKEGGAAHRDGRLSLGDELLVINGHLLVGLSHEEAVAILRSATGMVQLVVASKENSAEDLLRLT

SIPA1L2, Q9P2F8 = target: T11, SIPA1L2, Q9P2F8
T11 sequence (Q9P2F8 945-1036, limits assumed, looked up): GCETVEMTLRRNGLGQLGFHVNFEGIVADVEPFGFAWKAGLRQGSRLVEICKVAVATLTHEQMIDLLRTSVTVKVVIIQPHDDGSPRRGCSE

SNTA1, Q13424 = target: T12, SNTA1, Q13424
T12 sequence (Q13424 82-180, limits assumed, looked up): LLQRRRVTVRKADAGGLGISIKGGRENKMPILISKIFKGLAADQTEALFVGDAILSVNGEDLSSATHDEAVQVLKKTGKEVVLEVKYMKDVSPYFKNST

Chain of NHERF2_2, Q15599 (Q15599 142-238): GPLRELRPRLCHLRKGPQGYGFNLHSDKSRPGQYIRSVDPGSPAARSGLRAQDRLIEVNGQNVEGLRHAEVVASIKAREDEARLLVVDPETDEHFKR
Chain of GRIP2_5, Q9C0E4 (Q9C0E4 544-642): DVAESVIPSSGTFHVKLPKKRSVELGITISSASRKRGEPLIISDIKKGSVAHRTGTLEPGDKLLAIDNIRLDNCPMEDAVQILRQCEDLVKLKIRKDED
Chain of GRID2IP_2, A4D2P6 (A4D2P6 272-370): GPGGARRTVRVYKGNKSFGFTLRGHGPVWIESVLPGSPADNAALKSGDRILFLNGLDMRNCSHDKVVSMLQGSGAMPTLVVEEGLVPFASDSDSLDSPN
Chain of GIPC2, Q8TF65 (Q8TF65 112-203): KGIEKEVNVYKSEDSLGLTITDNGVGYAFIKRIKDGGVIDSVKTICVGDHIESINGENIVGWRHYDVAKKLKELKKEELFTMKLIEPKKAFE
Chain of MAGI2_2, Q86UL8 (Q86UL8 410-522): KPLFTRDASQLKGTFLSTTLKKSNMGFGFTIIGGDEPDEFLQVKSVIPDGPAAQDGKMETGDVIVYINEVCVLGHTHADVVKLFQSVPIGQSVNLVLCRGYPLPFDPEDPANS
Chain of FRMPD2_2, Q68DX3 (Q68DX3 944-1038): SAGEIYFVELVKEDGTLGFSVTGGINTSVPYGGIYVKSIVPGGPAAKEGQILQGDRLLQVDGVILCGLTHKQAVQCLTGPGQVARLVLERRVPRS
Chain of IL16_3, Q14005 (Q14005 1107-1207): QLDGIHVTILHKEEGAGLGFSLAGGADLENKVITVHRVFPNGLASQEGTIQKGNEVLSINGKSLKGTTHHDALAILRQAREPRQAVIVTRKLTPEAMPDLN
Chain of GRASP, Q7Z6J2 (Q7Z6J2 96-193): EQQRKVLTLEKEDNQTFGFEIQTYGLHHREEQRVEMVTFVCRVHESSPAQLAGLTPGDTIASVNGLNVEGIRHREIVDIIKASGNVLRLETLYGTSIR
Chain of FRMPD2_3, Q68DX3 (Q68DX3 1073-1166): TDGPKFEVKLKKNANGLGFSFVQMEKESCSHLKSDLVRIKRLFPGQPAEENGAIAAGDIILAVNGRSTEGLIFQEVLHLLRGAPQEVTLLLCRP
Chain of GRIP2_6, Q9C0E4 (Q9C0E4 648-740): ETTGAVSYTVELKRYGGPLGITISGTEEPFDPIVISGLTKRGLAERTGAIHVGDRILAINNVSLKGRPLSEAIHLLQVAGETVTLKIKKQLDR
Chain of MAST1, Q9Y2H9 (Q9Y2H9 962-1065): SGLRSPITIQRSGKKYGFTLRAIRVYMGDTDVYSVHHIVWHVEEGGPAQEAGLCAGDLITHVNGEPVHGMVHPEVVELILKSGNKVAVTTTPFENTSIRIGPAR

Row | Binder | pKd (CARD11, Q9BXL7) | pKd (DFNB31_2, Q9P202) | pKd (DFNB31_3, Q9P202) | pKd (DLG1_1, Q12959) | pKd (DLG1_2, Q12959) | pKd (DLG2_3, Q15700) | pKd (FRMPD2_2, Q68DX3) | pKd (FRMPD2_3, Q68DX3) | pKd (GIPC2, Q8TF65) | pKd (GRASP, Q7Z6J2) | pKd (GRID2IP_2, A4D2P6) | pKd (GRIP2_5, Q9C0E4) | pKd (GRIP2_6, Q9C0E4) | pKd (IL16_3, Q14005) | pKd (LIN7A, O14910) | pKd (MAGI2_2, Q86UL8) | pKd (MAST1, Q9Y2H9) | pKd (MPDZ_5, O75970) | pKd (MPP6, Q9NZW5) | pKd (NHERF2_2, Q15599) | also measured
1 | RRISSLESEV [GRIN2C, Q14957] | below the threshold | below the threshold | below the threshold | 4.86 | 5.51 | 4.44 | 3.85 | below the threshold | 3.65 | below the threshold | 3.54 | below the threshold | below the threshold | below the threshold | below the threshold | 4.58 | 4.54 | below the threshold | below the threshold | below the threshold | pKd (NHERF3_1, Q5T2W1): 3.82; pKd (NHERF3_4, Q5T2W1): 3.66; pKd (PCLO, Q9Y6V0): below the threshold; pKd (PDZD2_2, O15018): 4.98; pKd (SIPA1L2, Q9P2F8): below the threshold; pKd (SNTA1, Q13424): 4.53
2 | LGRSTPQSEV [DGKH, Q86XP1] | below the threshold | below the threshold | below the threshold | below the threshold | 4.01 | below the threshold | below the threshold | below the threshold | below the threshold | 3.51 | 4.16 | below the threshold | below the threshold | below the threshold | below the threshold | 3.58 | 4.19 | below the threshold | 3.71 | below the threshold | pKd (NHERF3_1, Q5T2W1): below the threshold; pKd (NHERF3_4, Q5T2W1): below the threshold; pKd (PCLO, Q9Y6V0): below the threshold; pKd (PDZD2_2, O15018): 4.72; pKd (SIPA1L2, Q9P2F8): below the threshold; pKd (SNTA1, Q13424): 3.8
3 | CLREWCDAFL [BANF1, O75531] | below the threshold | below the threshold | below the threshold | below the threshold | below the threshold | 3.61 | below the threshold | below the threshold | below the threshold | 3.51 | below the threshold | below the threshold | below the threshold | below the threshold | below the threshold | below the threshold | 4.96 | below the threshold | below the threshold | 4.48 | pKd (NHERF3_1, Q5T2W1): 4.78; pKd (NHERF3_4, Q5T2W1): 3.62; pKd (PCLO, Q9Y6V0): below the threshold; pKd (PDZD2_2, O15018): below the threshold; pKd (SIPA1L2, Q9P2F8): below the threshold; pKd (SNTA1, Q13424): below the threshold

Further lines, with some results ahead:

Row | pKd (CARD11, Q9BXL7) | pKd (DFNB31_2, Q9P202) | pKd (DFNB31_3, Q9P202) | pKd (DLG1_1, Q12959) | pKd (DLG1_2, Q12959) | pKd (DLG2_3, Q15700) | pKd (FRMPD2_2, Q68DX3) | pKd (FRMPD2_3, Q68DX3) | pKd (GIPC2, Q8TF65) | pKd (GRASP, Q7Z6J2) | pKd (GRID2IP_2, A4D2P6) | pKd (GRIP2_5, Q9C0E4) | pKd (GRIP2_6, Q9C0E4) | pKd (IL16_3, Q14005) | pKd (LIN7A, O14910) | pKd (MAGI2_2, Q86UL8) | pKd (MAST1, Q9Y2H9) | pKd (MPDZ_5, O75970) | pKd (MPP6, Q9NZW5) | pKd (NHERF2_2, Q15599) | Binder | also measured
4 | below the threshold | below the threshold | below the threshold | 4.83 | 5.25 | 4.35 | below the threshold | below the threshold | 3.6 | 4.04 | below the threshold | below the threshold | below the threshold | below the threshold | below the threshold | 4.6 | below the threshold | below the threshold | below the threshold | below the threshold | PPYRHRNTVV [ERBB4, Q15303] | pKd (NHERF3_1, Q5T2W1): below the threshold; pKd (NHERF3_4, Q5T2W1): below the threshold; pKd (PCLO, Q9Y6V0): below the threshold; pKd (PDZD2_2, O15018): 4.25; pKd (SIPA1L2, Q9P2F8): below the threshold; pKd (SNTA1, Q13424): 5.32
5 | below the threshold | below the threshold | below the threshold | below the threshold | below the threshold | below the threshold | below the threshold | below the threshold | below the threshold | 3.9 | below the threshold | below the threshold | below the threshold | below the threshold | below the threshold | below the threshold | 4.08 | below the threshold | below the threshold | below the threshold | YNNCLEILRV [DCAF7, P61962] | pKd (NHERF3_1, Q5T2W1): below the threshold; pKd (NHERF3_4, Q5T2W1): below the threshold; pKd (PCLO, Q9Y6V0): below the threshold; pKd (PDZD2_2, O15018): below the threshold; pKd (SIPA1L2, Q9P2F8): below the threshold; pKd (SNTA1, Q13424): below the threshold
